Source: PMC3470408

Tested on: CC(C)=CCOP(=O)(O)OP(=O)(O)O
Assay: purified protein
Conditions: pH 7.0; 37.0 °C

“Rv0562 (Mycobacterium tuberculosis H37Rv)” was tested, and the Km was 5 ± 2 µM.
